Experimental data from patent US20220340666A1 (published 2022).
Changes are numbered by the printed parent chain.

B1: G9.2-17 Fab (Fab, V domains shown)
VH: EVQLVESGGGLVQPGGSLRLSCAASGFTVSSSSIHWVRQAPGKGLEWVAYISSSSGYTYYADSVKGRFTISADTSKNTAYLQMNSLRAEDTAVYYCARYWSYPSWWPYRGMDYWGQGTLVTVSS
VL: DIQMTQSPSSLSASVGDRVTITCRASQSVSSAVAWYQQKPGKAPKLLIYSASSLYSGVPSRFSGSRSGTDFTLTISSLQPEDFATYYCQQSSTDPITFGQGTKVEIKR
B2: G9.2-17mut6 Fab (Fab, V domains shown)
VH: B1 VH with W106S
VL: B1 VL
B3: G9.2-1 Fab (Fab, V domains shown)
VH: EVQLVESGGGLVQPGGSLRLSCAASGFTLYSSSIHWVRQAPGKGLEWVASIYSSSGYTYYADSVKGRFTISADTSKNTAYLQMNSLRAEDTAVYYCARTYTWKSSWSYQTGYGLDYWGQGTLVTVSS
VL: DIQMTQSPSSLSASVGDRVTITCRASQSVSSAVAWYQQKPGKAPKLLIYSASSLYSGVPSRFSGSRSGTDFTLTISSLQPEDFATYYCQQYKSKYPFTFGQGTKVEIKR
B4: G9.2-15 Fab (Fab, V domains shown)
VH: EVQLVESGGGLVQPGGSLRLSCAASGFTVSSSSIHWVRQAPGKGLEWVASIYSSSGYTSYADSVKGRFTISADTSKNTAYLQMNSLRAEDTAVYYCARNVENYPYWAWPWGYYGAIDYWGQGTLVTVSS
VL: B1 VL with T93W, D94G, P95L
B5: G9.2-3 Fab (Fab, V domains shown)
VH: EVQLVESGGGLVQPGGSLRLSCAASGFTFSSSSIHWVRQAPGKGLEWVASISSSSGSTSYADSVKGRFTISADTSKNTAYLQMNSLRAEDTAVYYCARPAYSYPYYYFHYGAMDYWGQGTLVTVSS
VL: B1 VL with T93S, D94S, P95L
B6: G9.1-6 Fab (Fab, V domains shown)
VH: EVQLVESGGGLVQPGGSLRLSCAASGFTLSSSSIHWVRQAPGKGLEWVASIYSSYGSTSYADSVKGRFTISADTSKNTAYLQMNSLRAEDTAVYYCARSSHWYMYWSYWGWYIGMDYWGQGTLVTVSS
VL: B1 VL with S91Y, S92H, T93S, D94S, P95L, I96F
B7: G9.1-11 Fab (Fab, V domains shown)
VH: EVQLVESGGGLVQPGGSLRLSCAASGFTVYSSSIHWVRQAPGKGLEWVASIYSYYGYTSYADSVKGRFTISADTSKNTAYLQMNSLRAEDTAVYYCARSTEGYDRWGYYSSYWSSGLDYWGQGTLVTVSS
VL: B1 VL with S91T, S92Y, T93W, D94G, P95L
B8: G9.1-5 Fab (Fab, V domains shown)
VH: EVQLVESGGGLVQPGGSLRLSCAASGFTIYYSSIHWVRQAPGKGLEWVASISSSYGSTYYADSVKGRFTISADTSKNTAYLQMNSLRAEDTAVYYCARSVSWYPYYYYYGYGSGLDYWGQGTLVTVSS
VL: DIQMTQSPSSLSASVGDRVTITCRASQSVSSAVAWYQQKPGKAPKLLIYSASSLYSGVPSRFSGSRSGTDFTLTISSLQPEDFATYYCQQYYGWFYPVTFGQGTKVEIKR
B9: G9.1-8 Fab (Fab, V domains shown)
VH: EVQLVESGGGLVQPGGSLRLSCAASGFTVSSSSIHWVRQAPGKGLEWVAYIYPYSGYTSYADSVKGRFTISADTSKNTAYLQMNSLRAEDTAVYYCARYSTYSWGGIGKWVWGMDYWGQGTLVTVSS
VL: B8 VL with Y91S, G93Y, W94D, F95S, Y96N, V98I

These binders were tested against T1, human Galectin-9 CRD2 (residues 218-355), biotinylated (UniProt O00182 218-355, biotinylated in vitro with BirA (Avitag)) (assay: SPR).
T1 sequence (O00182 218-355): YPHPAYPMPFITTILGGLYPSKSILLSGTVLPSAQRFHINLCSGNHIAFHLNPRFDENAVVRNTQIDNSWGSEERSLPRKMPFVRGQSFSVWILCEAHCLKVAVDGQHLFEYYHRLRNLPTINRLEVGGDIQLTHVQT

Kd [nM] | Binder
0.219 | B1
0.154 | B2

Each binder was assayed against T1, human Galectin-9 CRD2 (residues …) (assay: bead-based binding assay; apparent Kd).

Kd [nM] | Binder
4170 | B3
0.76 | B1
0.71 | B4
1380 | B5

Biological target: T1, human Galectin-9 CRD2 (residues …)
Experiment: SPR
Remark: another data set of the same source

Kd [nM] | Binder
0.232 | B1
4.8 | B4

These binders were tested against human Galectin-9 CRD1 (residues 1-148), biotinylated (UniProt O00182 1-148, biotinylated in vitro with BirA (Avitag)) (assay: bead-based binding assay; apparent Kd; plots and legend state CRD1).
Chain of human Galectin-9 CRD1 (residues 1-148), biotinylated (O00182 1-148): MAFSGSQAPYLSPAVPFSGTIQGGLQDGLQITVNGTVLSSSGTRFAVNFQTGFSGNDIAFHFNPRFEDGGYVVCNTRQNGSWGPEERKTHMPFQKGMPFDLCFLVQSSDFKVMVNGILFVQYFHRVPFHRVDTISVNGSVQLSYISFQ

Kd [nM] | Binder
29.2 | B6
20.4 | B7
30.4 | B8
9.8 | B9
